The experiment has as its target full length, processed caspase-9 (residues 1-416) (UniProt P55211). The experiment can be described thus: gel filtration chromatography of equi-molar Apaf-1 (1-591) and caspase-9.

Consider one substance from patent US20060106200A1.

Sequence of full length, processed caspase-9 (residues 1-416) (P55211 whole entry, form in doubt, the tested form may be a part): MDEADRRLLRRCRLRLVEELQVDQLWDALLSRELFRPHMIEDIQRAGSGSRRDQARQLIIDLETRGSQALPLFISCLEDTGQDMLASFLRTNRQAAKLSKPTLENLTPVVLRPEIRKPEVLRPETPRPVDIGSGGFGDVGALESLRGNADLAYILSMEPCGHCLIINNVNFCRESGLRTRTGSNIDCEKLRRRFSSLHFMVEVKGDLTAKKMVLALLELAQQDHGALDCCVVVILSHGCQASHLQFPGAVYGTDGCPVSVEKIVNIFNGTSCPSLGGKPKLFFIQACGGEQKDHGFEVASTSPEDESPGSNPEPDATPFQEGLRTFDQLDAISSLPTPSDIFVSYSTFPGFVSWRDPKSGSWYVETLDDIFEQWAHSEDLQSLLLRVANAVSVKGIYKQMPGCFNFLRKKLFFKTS

For the substance “soluble Apaf-1 fragment (residues 1-591 of full length Apaf-1) (from UniProt O14727 1-591)”, the apparent molecular mass of the complex peak on gel filtration was 130 kilodaltons.
